From patent publication US20080305522A1 (MITSUKAN GROUP, published 2008)
One block for each binder: values may come before it.

Experiments:
[1] = target: T1, polypeptide NBS (neoculin basic subunit), purified from the fruit of Curculigo latifolia (Curculigo latifolia, UniProt P19667 23-136); assay: SDS-PAGE under reducing and non-reducing conditions, CBB staining, native neoculin
T1 construct: Subunit of native neoculin, without a sugar chain; It has 115 residues: curculin B plus one extra C-terminal Gly; also called 11 kDa subunit
T1 sequence: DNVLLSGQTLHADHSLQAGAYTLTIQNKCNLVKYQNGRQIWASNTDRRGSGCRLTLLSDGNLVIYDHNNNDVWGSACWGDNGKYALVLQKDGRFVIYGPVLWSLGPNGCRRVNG
Experimental: 2.5 μg of the purified neoculin powder obtained above in (1) to (3) was subjected to SDS-PAGE under reducing conditions or non-reducing conditions at a gel concentration of 15% and subsequently to CBB staining. […] Thus, the individual subunits were designated as neoculin acidic subunit (NAS) and neoculin basic subunit (NBS).

[2] = target: the molecule itself; assay: phenyl hydrophobic column fractions, SDS-PAGE under reducing/non-reducing conditions and western blotting
[3] = target: T2, recombinant NBS secreted by Aspergillus oryzae NS-NAB2 (three Gly residues before the N terminus) (Curculigo latifolia, UniProt P19667 23-136); assay: as above
T2 construct: Expressed as an alpha-amylase fusion and cleaved at Lys-Arg by a KEX2-like protease; also called 11 kDa band of recombinant neoculin
T2 sequence: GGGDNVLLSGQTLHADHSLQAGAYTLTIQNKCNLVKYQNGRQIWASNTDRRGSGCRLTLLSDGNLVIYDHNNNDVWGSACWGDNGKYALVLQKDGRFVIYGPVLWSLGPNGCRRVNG

binding result [1]: binds
B1: polypeptide NAS (neoculin acidic subunit), purified from the fruit of Curculigo latifolia (other)
chain: DSVLLSGQTLYAGHSLTSGSYTLTIQNNCNLVKYQHGRQIWASDTDGQGSQCRLTLRSDGNLIIYDDNNMVVWGSDCWGNNGTYALVLQQDGLFVIYGPVLWPLGLNGCRSLN
modifications: N-linked sugar chain, mannose/N-acetylglucosamine/fucose/xylose at a ratio of about 3/2/1/1; binding site 'may possibly be asparagine-81' of SEQ ID NO.2
notes: Subunit of native neoculin; It separates from NBS only under reducing conditions in SDS-PAGE; also called 13 kDa subunit

binding result [3]: binds
B2: recombinant NAS secreted by Aspergillus oryzae NS-NAB2 (three Gly residues before the N terminus) (other)
chain: GGGDSVLLSGQTLYAGHSLTSGSYTLTIQNNCNLVKYQHGRQIWASDTDGQGSQCRLTLRSDGNLIIYDDNNMVVWGSDCWGNNGTYALVLQQDGLFVIYGPVLWPLGLNGCRSLN
notes: Expressed as an alpha-amylase fusion and cleaved at Lys-Arg by a KEX2-like protease; Glycosylation in the koji mold is not described; also called 13 kDa band of recombinant neoculin
binding result [2]: binds
